20 molecules from patent publication US20180162928A1 (Janssen / Centocor, published 2018) can be followed below.

Holding throughout (assay): ELISA, lysate on plate-bound antigen
A general note: ELISA stands for enzyme-linked immunosorbent assay.

Test [1] has as its target human serum albumin (human) (UniProt P02768).
Test [2] concerns the target unrelated Fc-fused recombinant protein.
The target of test [3] is T1, recombinant biotinylated PD-L1 (rhPD-L1/Fc Chimera, R&D Systems 156-B7) (human, UniProt Q9NZQ7 19-238, biotinylated (sites not given)).
T1 construct: Bought Fc chimera; also called human PD-L1
The procedure: Streptavidin-coated Maxisorp plates (Nunc catalog 436110) were blocked for 1 h in Starting Block T20 (Pierce) and then coated with biotinylated PD-L1 (using same antigen as in panning) or negative controls (an unrelated Fc-fused recombinant protein and human serum albumin) for 1 h. Plates were rinsed with TBST and diluted lysate was applied to plates for 1 h. Following additional rinses, wells were treated with HRP-conjugated anti-FN3 domain antibody (PAB25) for 1 h and then assayed with POD (Roche catalog 11582950001).

Chain of human serum albumin (human) (P02768 25-609 limits assumed): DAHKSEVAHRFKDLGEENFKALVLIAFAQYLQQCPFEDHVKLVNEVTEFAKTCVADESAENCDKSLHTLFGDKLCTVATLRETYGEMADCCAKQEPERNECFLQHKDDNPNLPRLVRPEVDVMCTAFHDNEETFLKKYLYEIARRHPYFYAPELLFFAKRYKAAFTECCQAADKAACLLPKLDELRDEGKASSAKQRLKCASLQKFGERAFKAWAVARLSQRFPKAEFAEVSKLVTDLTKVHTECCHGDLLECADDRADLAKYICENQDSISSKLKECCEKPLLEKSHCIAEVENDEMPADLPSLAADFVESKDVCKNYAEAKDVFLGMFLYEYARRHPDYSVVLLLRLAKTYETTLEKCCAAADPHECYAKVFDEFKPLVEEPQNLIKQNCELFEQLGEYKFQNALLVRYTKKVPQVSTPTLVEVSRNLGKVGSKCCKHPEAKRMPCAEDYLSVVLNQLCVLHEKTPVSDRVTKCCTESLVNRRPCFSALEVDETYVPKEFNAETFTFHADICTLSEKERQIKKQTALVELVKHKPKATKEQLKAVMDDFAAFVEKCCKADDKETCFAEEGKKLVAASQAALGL
T1 sequence (Q9NZQ7 19-238, change not shown): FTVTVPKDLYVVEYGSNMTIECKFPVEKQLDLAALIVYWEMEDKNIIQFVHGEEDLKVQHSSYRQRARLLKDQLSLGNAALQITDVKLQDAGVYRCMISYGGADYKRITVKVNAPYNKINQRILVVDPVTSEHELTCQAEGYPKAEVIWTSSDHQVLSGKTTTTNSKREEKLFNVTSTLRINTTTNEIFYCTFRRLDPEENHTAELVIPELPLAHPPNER

B1: ISOP121AR5P1E7 (designed binder, not shown: small tags and cut ends)
chain: LPAPKNLVVSRVTEDSARLSWHVYHEIDYFDSFLIQYQESEKVGEAIVLTVPGSERSYDLTGLKPGTEYTVSIYGVYQRKVEFYSNPLSAIFTT
notes: FN3 domain; E. coli lysate in the ELISA
In turn, B1 returned an ELISA HSA (RSU) in test [1] of 6560 RSU. Also, the ELISA Fc Control (RSU) in test [2] is 4240 RSU. Besides, the “ELISA PD-L1 Fc (RSU)” value in test [3] turned out to be 327000 RSU.

B2: ISOP194AR9P1H3 (designed binder, not shown: small tags and cut ends)
chain: LPAPKNLVVSRVTEDSARLSWNASWISHNFFDSFLIQYQESEKVGEAIVLTVPGSERSYDLTGLKPGTEYTVSIYGVYERKTAFYSNPLSAIFTT
notes: as for B1
On to B2, for which the ELISA HSA (RSU) in test [1] came out at 4880 RSU. Further, in test [2], the ELISA Fc Control (RSU) came to 9200 RSU. Besides, the “ELISA PD-L1 Fc (RSU)” value in test [3] amounted to 1.77e+07 RSU.

B3: ISOP121FR5P1G1 (designed binder, not shown: small tags and cut ends)
chain: LPAPKNLVVSRVTEDSARLSWTAPDAAFDSFWIHYTEAPVHGEAIVLTVPGSERSYDLTGLKPGTEYTVVIWGVKGGTWSSPLSAIFTT
notes: as for B1
B3 showed an ELISA HSA (RSU) in test [1] of 400 RSU. The ELISA Fc Control (RSU) in test [2] was determined as 640 RSU. Further, in test [3], the “ELISA PD-L1 Fc (RSU)” value came to 10000 RSU.

B4: ISOP121GR5P1F6 (designed binder, not shown: small tags and cut ends)
chain: LPAPKNLVVSRVTEDSARLSWTAPDAAFDSFDIRYHEYTWPGEAIVLLVPGSERSYDLTGLKPGTEYGVYINGVKGGFRSKPLFAWFTTGG
notes: as for B1
The molecule B4 registered an ELISA HSA (RSU) in test [1] of 640 RSU. Besides, the ELISA Fc Control (RSU) in test [2] was found to be 640 RSU. In addition, the “ELISA PD-L1 Fc (RSU)” value in test [3] is 32100 RSU.

B5: ISOP121AR5P1F9 (designed binder, not shown: small tags and cut ends)
chain: LPAPKNLVVSRVTEDSARLSWGWSELIATHFDSFLIQYQESEKVGEAIVLTVPGSERSYDLTGLKPGTEYTVSIYGVYNRKVNFYSNPLSAIFTT
notes: as for B1
B5 yielded an ELISA HSA (RSU) in test [1] of 1040 RSU. Besides, the ELISA Fc Control (RSU) in test [2] was 1120 RSU. Moreover, the “ELISA PD-L1 Fc (RSU)” value in test [3] was 136000 RSU.

B6: ISOP194AR9P1H1 (designed binder, not shown: small tags and cut ends)
chain: LPAPKNLVVSRVTEDSARLSWWRVLGHSHFFDSFLIQYQESEKVGEAIVLTVPGSERSYDLTGLKPGTEYTVSIYGVYNRKVNFYSNPLSAIFTT
notes: as for B1
With B6, the ELISA HSA (RSU) in test [1] was found to be 6800 RSU. Further, the ELISA Fc Control (RSU) in test [2] was 15700 RSU. In addition, the “ELISA PD-L1 Fc (RSU)” value in test [3] turned out to be 2.14e+07 RSU.

B7: ISOP121AR5P1F2 (designed binder, not shown: small tags and cut ends)
chain: LPAPKNLVISRVTEDSARLSWGWSELIATHFDSFLIQYQESEKVGEAIVLTVPGSERSYDLTGLKPGTEYTVSIYGVYNRKVNFYSNPLSAIFTT
notes: as for B1
In turn, B7 returned an ELISA HSA (RSU) in test [1] of 960 RSU. Also, in test [2], the ELISA Fc Control (RSU) stood at 880 RSU. In addition, the “ELISA PD-L1 Fc (RSU)” value in test [3] worked out at 51000 RSU.

B8: ISOP194GR9P1F9 (designed binder, not shown: small tags and cut ends)
chain: LPAPKNLVVSRVTEDSARLSWTAPDAAFDSFWIFYNERWQNGEAIRLIVPGSERSYDLTGLKPGTEYSVIIPGVKGGRNSFPLWAWFTT
notes: as for B1
As for B8, the ELISA HSA (RSU) in test [1] was determined as 800 RSU. For the same molecule, the ELISA Fc Control (RSU) in test [2] was 320 RSU. For the same molecule, in test [3], the “ELISA PD-L1 Fc (RSU)” value worked out at 105000 RSU.

B9: ISOP121HR5P1H2 (designed binder, not shown: small tags and cut ends)
chain: LPAPKNLVVSRVTEDSARLSWTAPDAAFDSFDIYYLEYDYSGEAIVLTVPGSERSYDLTGLKPGTEYDVLIIGVKGGSLSTPLSAIFTT
notes: as for B1
In turn, B9 showed an ELISA HSA (RSU) in test [1] of 560 RSU. Further, in test [2], the ELISA Fc Control (RSU) worked out at 720 RSU. For the same molecule, the “ELISA PD-L1 Fc (RSU)” value in test [3] came to 21000 RSU.

B10: ISOP194ER9P1E6 (designed binder, not shown: small tags and cut ends)
chain: LPAPKNLVVSRVTEDSARLSWTAPDAAFDSFWIKYYEKRNPGEAIVLTVPGSERSYDLTGLKPGTEYLVIISGVKGGSRSVPLSAIFTT
notes: as for B1
As to B10, in test [1], the ELISA HSA (RSU) was found to be 720 RSU. In addition, the ELISA Fc Control (RSU) in test [2] came to 240 RSU. Besides, the “ELISA PD-L1 Fc (RSU)” value in test [3] came to 8.98e+06 RSU.

B11: ISOP121BR5P1B7 (designed binder, not shown: small tags and cut ends)
chain: LPAPKNLVVSRITEDSARLSWKWEEGFFDSFLIQYQESEKVGEAIVLTVPGSERSYDLTGLKPGTEYTVSIYGVYQRHASAFVSNPLSAIFTT
notes: as for B1
For the molecule B11, in test [1], the ELISA HSA (RSU) was 480 RSU. Besides, in test [2], the ELISA Fc Control (RSU) is 640 RSU. In test [3], the “ELISA PD-L1 Fc (RSU)” value was determined as 11400 RSU.

B12: ISOP121BR5P1F7 (designed binder, not shown: small tags and cut ends)
chain: LPAPKNLVVSRVTEDSARLSWHDATWQYFDSFLIQYQESEKVGEAIVLTVPGSERSYDLTGLKPGTEYTVSIYGVFHRKHIDFVSNPLSAIFTT
notes: as for B1
B12: the ELISA HSA (RSU) in test [1] was found to be 880 RSU. Further, the ELISA Fc Control (RSU) in test [2] worked out at 720 RSU. For the same molecule, the “ELISA PD-L1 Fc (RSU)” value in test [3] worked out at 12900 RSU.

B13: ISOP194GR9P1F6 (designed binder, not shown: small tags and cut ends)
chain: LPAPKNLVVSRVTEDSARLSWTAPDAAFDSFWIDYWERLSEGEAIALRVPGSERSYDLTGLKPGTEYYVWIVGVKGGKFSQPLRAWFTT
notes: as for B1
In the case of B13, the ELISA HSA (RSU) in test [1] worked out at 1200 RSU. In addition, the ELISA Fc Control (RSU) in test [2] came to 400 RSU. Moreover, in test [3], the “ELISA PD-L1 Fc (RSU)” value was 319000 RSU.

B14: ISOP121BR5P1G2 (designed binder, not shown: small tags and cut ends)
chain: LPAPKNLVVSRVTEDSARLSWADELHHANHFDSFLIQYQESEKVGEAIVLTVPGSERSYDLTGLKPGTEYTVSIYGVYDRHYEIHFYSNPLSAIFTT
notes: as for B1
On to B14, for which the ELISA HSA (RSU) in test [1] came out at 560 RSU. Also, the ELISA Fc Control (RSU) in test [2] was 800 RSU. The “ELISA PD-L1 Fc (RSU)” value in test [3] is 16700 RSU.

B15: ISOP194AR9P1D11 (designed binder, not shown: small tags and cut ends)
chain: LPAPKNLVVSRVTEDSGRLSWQHHISFFDSFLIQYQESEKVGEAIVLTVPGSERSYDLTGLKPGTEYTVSIYGVYNRKVNFYSNPLSAIFTT
notes: as for B1
Take B15: the ELISA HSA (RSU) in test [1] came to 12700 RSU. Also, the ELISA Fc Control (RSU) in test [2] worked out at 28200 RSU. In test [3], the “ELISA PD-L1 Fc (RSU)” value came out at 1.04e+06 RSU.

B16: ISOP121BR5P1D3 (designed binder, not shown: small tags and cut ends)
chain: LPAPKNLVVSRVTEDSARLSWYEDNTERFDSFLIQYQESEKVGEAIVLTVPGSERSYDLTGLKPGTEYTVSIYGVYIRVQVLWFSNPLSAIFTT
notes: as for B1
In turn, B16 gave an ELISA HSA (RSU) in test [1] of 800 RSU. For the same molecule, the ELISA Fc Control (RSU) in test [2] is 800 RSU. For the same molecule, the “ELISA PD-L1 Fc (RSU)” value in test [3] is 75800 RSU.

B17: ISOP194BR9P1D10 (designed binder, not shown: small tags and cut ends)
chain: LPAPKNLVVSRVTEDSARLSWYEDNTERFDSFLIQYQESEKVVEAIVLTVPGSERSYDLTGLKPGTEYTVSIYGVYIRVQVLWFSNPLSAIFTT
notes: as for B1
Take B17: the ELISA HSA (RSU) in test [1] came out at 1120 RSU. Besides, in test [2], the ELISA Fc Control (RSU) worked out at 720 RSU. The “ELISA PD-L1 Fc (RSU)” value in test [3] stood at 1.67e+06 RSU.

B18: ISOP121BR5P1E9 (designed binder, not shown: small tags and cut ends)
chain: LPAPKNLVVSRVTEDSARLSWDSYRDYFDSFLIQYQESEKVGEAIVLTVPGSERSYDLTGLKPGTEYTVSIYGVYSRKHVVFVQSNPLSAIFTT
notes: as for B1
Regarding B18, the ELISA HSA (RSU) in test [1] worked out at 800 RSU. In test [2], the ELISA Fc Control (RSU) amounted to 960 RSU. Further, the “ELISA PD-L1 Fc (RSU)” value in test [3] stood at 42000 RSU.

B19: ISOP194HR9P1B10 (designed binder, not shown: small tags and cut ends)
chain: LPAPKNLVVSRVTEDSARLSWTAPDAAFDSFPIRYYERANGEAIVLTVPGSERSYDLTGLKPGTEYIVWIYGVKGGGRSGPLSAIFTT
notes: as for B1
As for B19, the ELISA HSA (RSU) in test [1] came to 1840 RSU. Further, the ELISA Fc Control (RSU) in test [2] was found to be 560 RSU. Besides, the “ELISA PD-L1 Fc (RSU)” value in test [3] is 385000 RSU.

B20: ISOP121FR5P1G11 (designed binder, not shown: small tags and cut ends)
chain: LPAPKNLVVSRVTEDSARLSWTAPDAAFDSFSIWYLEIVAHGEAIVLTVPGSERSYDLTGLKPGTEYEVIIHGVKGCGPSGPLSAIFTT
notes: as for B1
As to B20, the ELISA HSA (RSU) in test [1] was 480 RSU. For the same molecule, in test [2], the ELISA Fc Control (RSU) was 880 RSU. In test [3], the “ELISA PD-L1 Fc (RSU)” value worked out at 18600 RSU.
